Measurements reported in publication PMC7156492.

Biological target: tetrameric Y-complex fragment Nup120-Nup145C-Sec13-Nup85 (NPC-II) (Myceliophthora thermophila)
Experiment: mass photometry; mixture of NPC-I and NPC-II (NPC-III) diluted 10-fold from 482 nM immediately before measurement; 10 mM HEPES pH 7.5, 150 mM NaCl, 1 mM DTT, 0.1 mM EDTA; no cross-linker

tetrameric Y-complex fragment Nup120-Nup145C-Sec13-Nup85 (NPC-II) (Myceliophthora thermophila), sequence (main, as listed by the source, chain 1 of 3): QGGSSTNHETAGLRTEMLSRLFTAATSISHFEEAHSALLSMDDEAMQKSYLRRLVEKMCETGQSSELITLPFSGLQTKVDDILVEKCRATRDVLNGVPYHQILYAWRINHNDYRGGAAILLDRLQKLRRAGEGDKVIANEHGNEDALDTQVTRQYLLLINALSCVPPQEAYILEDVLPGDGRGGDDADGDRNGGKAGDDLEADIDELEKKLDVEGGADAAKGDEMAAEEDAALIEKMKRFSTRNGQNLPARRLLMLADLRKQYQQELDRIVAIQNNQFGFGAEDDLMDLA
tetrameric Y-complex fragment Nup120-Nup145C-Sec13-Nup85 (NPC-II) (Myceliophthora thermophila), sequence (partner, as listed by the source, chain 2 of 3): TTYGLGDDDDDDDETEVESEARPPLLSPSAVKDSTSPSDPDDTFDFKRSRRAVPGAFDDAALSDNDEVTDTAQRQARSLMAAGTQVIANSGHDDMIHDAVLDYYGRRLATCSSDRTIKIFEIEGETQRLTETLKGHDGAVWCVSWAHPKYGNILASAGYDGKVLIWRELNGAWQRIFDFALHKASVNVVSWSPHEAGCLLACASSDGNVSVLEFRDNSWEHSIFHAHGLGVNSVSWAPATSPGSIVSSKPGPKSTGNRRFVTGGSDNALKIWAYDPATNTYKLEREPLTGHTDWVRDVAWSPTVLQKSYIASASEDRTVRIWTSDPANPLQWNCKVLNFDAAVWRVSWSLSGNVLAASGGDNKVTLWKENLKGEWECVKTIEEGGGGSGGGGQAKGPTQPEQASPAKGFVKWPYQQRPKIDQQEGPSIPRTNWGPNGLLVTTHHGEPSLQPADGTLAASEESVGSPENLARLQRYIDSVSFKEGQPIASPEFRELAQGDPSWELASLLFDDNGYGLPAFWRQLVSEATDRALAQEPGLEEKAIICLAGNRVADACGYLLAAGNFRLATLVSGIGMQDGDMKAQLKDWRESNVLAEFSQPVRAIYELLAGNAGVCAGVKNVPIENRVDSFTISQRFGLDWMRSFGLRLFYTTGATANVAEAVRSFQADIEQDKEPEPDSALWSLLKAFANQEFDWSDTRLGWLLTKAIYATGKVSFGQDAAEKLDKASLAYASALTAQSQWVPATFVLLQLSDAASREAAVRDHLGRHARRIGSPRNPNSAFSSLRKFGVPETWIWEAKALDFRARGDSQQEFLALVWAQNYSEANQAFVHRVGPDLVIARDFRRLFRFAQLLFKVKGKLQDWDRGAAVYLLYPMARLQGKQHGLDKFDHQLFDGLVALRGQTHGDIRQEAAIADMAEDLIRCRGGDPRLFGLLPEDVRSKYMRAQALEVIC
tetrameric Y-complex fragment Nup120-Nup145C-Sec13-Nup85 (NPC-II) (Myceliophthora thermophila), sequence (partner, as listed by the source, chain 3 of 3): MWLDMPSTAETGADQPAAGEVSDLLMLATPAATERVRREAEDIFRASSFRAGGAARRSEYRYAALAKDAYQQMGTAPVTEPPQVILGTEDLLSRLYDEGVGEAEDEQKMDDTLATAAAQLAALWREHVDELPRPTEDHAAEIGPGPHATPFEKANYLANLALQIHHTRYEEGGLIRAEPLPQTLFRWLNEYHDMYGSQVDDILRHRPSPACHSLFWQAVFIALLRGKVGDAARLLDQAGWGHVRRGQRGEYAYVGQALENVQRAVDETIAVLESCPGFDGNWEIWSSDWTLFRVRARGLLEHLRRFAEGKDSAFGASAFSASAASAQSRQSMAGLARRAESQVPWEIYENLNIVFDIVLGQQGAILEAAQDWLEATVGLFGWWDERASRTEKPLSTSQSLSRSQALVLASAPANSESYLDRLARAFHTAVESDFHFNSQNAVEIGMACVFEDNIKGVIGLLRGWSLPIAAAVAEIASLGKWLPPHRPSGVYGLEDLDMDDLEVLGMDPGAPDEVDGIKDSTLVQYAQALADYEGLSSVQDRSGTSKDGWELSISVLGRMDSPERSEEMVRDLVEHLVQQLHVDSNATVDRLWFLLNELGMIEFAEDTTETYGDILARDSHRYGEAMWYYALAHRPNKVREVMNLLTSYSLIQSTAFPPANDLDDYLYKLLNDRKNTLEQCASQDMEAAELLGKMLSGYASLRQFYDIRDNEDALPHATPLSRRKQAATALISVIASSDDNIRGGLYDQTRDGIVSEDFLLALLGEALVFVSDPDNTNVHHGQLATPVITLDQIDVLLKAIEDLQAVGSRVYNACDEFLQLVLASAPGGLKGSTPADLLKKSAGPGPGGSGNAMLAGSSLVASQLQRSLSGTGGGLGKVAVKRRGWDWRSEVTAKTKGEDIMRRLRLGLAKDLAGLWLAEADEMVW

tetrameric Nup82-Nup145N-Nup159-Nsp1 complex (NPC-I)
stoichiometry N: 1
